Experimental data reported in patent US20040248767A1 (AUTOGEN RESEARCH, published 2004).

Assays:
[1] = target: T1, GST alone control protein (UniProt P08515 1-218 = GST); assay: SPR (Biacore J), control injected over SAA on CM5 chip
T1 construct: Negative control; also called GST control protein; control GST alone protein
Protocol: (§1) The 96% pure SAA was covalently bound to the biospecific sensor surface of the Biacore J (biacore, Sweden). This surface consists of a gold-coated glass slide mounted in a plastic holder (the sensor chip). The CM5 chip (biacore, Sweden) was used for all experiments and this chip is covered with a hydrophilic matrix, consisting of carboxymethylated dextran to which the SAA was covalently bound. The tanis protein fragments were injected into the system and flowed across this chip and sensorgrams were recorded in real-time.
(§2) The interaction of the proteins is indicated by the failure of the response to return to the baseline RU value. The difference between the values post injection (points 1, 3, 5, 7) indicates a binding event between full length tanis and SAA. The difference between the injection point and the max RU indicates the affinity between the two proteins. […] These sensorgrams indicate a potentially high affinity binding with a rapid dissociation of the binding event. A series of controls have also been injected across the SAA chip, these were GST alone, BSA (NEB, USA) alone and buffer alone.

[2] = target: T2, BSA (NEB, USA) (UniProt P02769 25-607); assay: as above
T2 construct: Negative control
T2 sequence (P02769 25-607 limits assumed): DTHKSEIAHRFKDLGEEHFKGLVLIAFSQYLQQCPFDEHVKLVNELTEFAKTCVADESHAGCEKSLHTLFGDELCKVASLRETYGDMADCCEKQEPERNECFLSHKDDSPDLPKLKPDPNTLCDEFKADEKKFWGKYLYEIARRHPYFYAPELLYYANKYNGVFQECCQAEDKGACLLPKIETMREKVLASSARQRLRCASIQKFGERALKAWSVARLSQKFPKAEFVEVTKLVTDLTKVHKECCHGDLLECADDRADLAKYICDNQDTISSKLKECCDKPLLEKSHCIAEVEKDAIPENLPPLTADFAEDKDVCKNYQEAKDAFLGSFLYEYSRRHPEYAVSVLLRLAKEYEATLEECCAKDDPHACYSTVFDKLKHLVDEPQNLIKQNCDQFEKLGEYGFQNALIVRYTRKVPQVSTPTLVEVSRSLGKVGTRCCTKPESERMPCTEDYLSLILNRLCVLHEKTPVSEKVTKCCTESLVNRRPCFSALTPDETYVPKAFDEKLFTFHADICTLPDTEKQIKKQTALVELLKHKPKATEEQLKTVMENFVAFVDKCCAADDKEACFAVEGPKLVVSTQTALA
Protocol: as §1, §2

T1 sequence (P08515 whole entry): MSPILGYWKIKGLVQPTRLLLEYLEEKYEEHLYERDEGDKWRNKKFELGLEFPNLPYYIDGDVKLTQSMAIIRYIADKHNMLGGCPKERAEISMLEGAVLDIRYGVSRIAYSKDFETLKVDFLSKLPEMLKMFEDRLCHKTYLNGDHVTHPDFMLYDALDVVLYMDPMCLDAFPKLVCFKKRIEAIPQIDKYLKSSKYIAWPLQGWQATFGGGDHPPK

B1: Serum amyloid A (SAA) purified from human sera / human plasma (Trace Scientific) (ligand, UniProt P0DJI8 19-122, looked up)
chain: RSFFSFLGEAFDGARDMWRAYSDMREANYIGSDKYFHARGNYDAAKRGPGGAWAAEVITDARENIQRFFGHGAEDSLADQAANEWGRSGKDPNHFRPAGLPEKY
notes: also called human plasma SAA
binding result [1]: no binding
binding result [2]: no binding
